± gives the uncertainty stated by the source.
Assay: self-splicing fitness, log relative to wild type (ln ratio); higher = more splicing; Tetrahymena group I intron in knt gene, E. coli kanamycin selection, DiMSum; sequences stand for … in CUCUCU…GGAGGGAAAAGUUAUCAGGCAUGCACCUGGUAGCUAGUCUUUAAACCAAUAGAUUGCAUCGGUUUAAAAGGCAAGACCGUCAAAUUGCGGGAAAGGGGUCAACAGCCGUUCAGUACCAAGUCUCAGGGGAAACUUUGAGAUGGCCUUGCAAAGGGUAUGGUAAUAAGCUGACGGACAUGGUCCUAACCACGCAGCCAAGUCCUAAGUCAACAGAUCUUCUGUUGAUAUGGAUGCAGUUCACAGACUAAAUGUCGGUCGGGGAAGAUGUAUUCUUCUCAUAAGAUAUAGUCGGACCUCUCCUUAAUGGGAGCUAGCGGAUGAAGUGAUGCAACACUGGAGCCGCUGGGAACUAAUUUGUAUGCGAAAGUAUAUUGAUUAGUUUUGGAGUACUCGUGGUCG
Method in brief: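 The eight P1ex-region nucleotides of an intron in the knt kanamycin-resistance gene on pET-22b(+) were all randomised and the library put into E. coli BL21(DE3). Six replicate transformations were grown overnight at 37°C or 30°C on LB agar with or without 25 μg/mL kanamycin, together with 100 μg/mL carbenicillin, 50 μM IPTG and 0.2% rhamnose. Colonies were pooled and amplicon-sequenced on an Illumina HiSeq 2500. Fitness from DiMSum is the error-weighted combination of wild-type-normalised replicate fold changes, kanamycin over none.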

| Sequence | self-splicing fitness (ln) (30 °C) | self-splicing fitness (ln) (37 °C) |
| --- | --- | --- |
| CGCCAGCAAUAUUACGGAGU | -3.79 ± 0.12 | -2.7 ± 0.13 |
| CGCCAGCAAUAUUACGGCCA | -0.294 ± 0.11 | 0.0865 ± 0.13 |
| CGCCAGCAAUAUUACGGGCU | -3.79 ± 0.18 | -2.04 ± 0.12 |
| CGCCAGCAAUAUUACGUACU | -2.58 ± 0.16 | -2.02 ± 0.2 |
| CGCCAGCAAUAUUACGUGUU | -3.08 ± 0.14 | -3.21 ± 0.18 |
| CGCGAGCAAUAUUACGAAGA | – | -0.985 ± 0.39 |
| CGCGAGCAAUAUUACGAGCU | -3.72 ± 0.37 | -2.22 ± 0.27 |
| CGCGAGCAAUAUUACGAGUG | -3.46 ± 0.31 | -1.78 ± 0.2 |
| CGCGAGCAAUAUUACGAGUU | -3.3 ± 0.2 | -3.19 ± 0.26 |
| CGCGAGCAAUAUUACGAUCA | -2.91 ± 0.19 | -2.04 ± 0.16 |
| CGCGAGCAAUAUUACGCAAA | -2.95 ± 0.38 | -3.4 ± 0.43 |
| CGCGAGCAAUAUUACGCACA | -2.3 ± 0.19 | -1.16 ± 0.18 |
| CGCGAGCAAUAUUACGCCAC | -3.41 ± 0.47 | – |
| CGCGAGCAAUAUUACGCCAU | -3.53 ± 0.24 | -3.92 ± 0.42 |
| CGCGAGCAAUAUUACGCCUC | -1.53 ± 0.44 | -1.38 ± 0.43 |
| CGCGAGCAAUAUUACGCGGG | -3.4 ± 0.17 | -3.6 ± 0.25 |
| CGCGAGCAAUAUUACGCUAG | – | -1.39 ± 0.29 |
| CGCGAGCAAUAUUACGCUCU | – | -0.833 ± 0.33 |
| CGCGAGCAAUAUUACGCUUC | – | -1.44 ± 0.45 |
| CGCGAGCAAUAUUACGGACA | – | -0.573 ± 0.34 |
| CGCGAGCAAUAUUACGGAGU | -4.33 ± 0.46 | -2.08 ± 0.21 |
| CGCGAGCAAUAUUACGGAUU | -3.12 ± 0.17 | -2.51 ± 0.25 |
| CGCGAGCAAUAUUACGGCCG | -3.16 ± 0.3 | -1.35 ± 0.29 |
| CGCGAGCAAUAUUACGUAGC | -3.66 ± 0.3 | -2.5 ± 0.32 |
| CGCGAGCAAUAUUACGUAUG | -1.62 ± 0.13 | -1.2 ± 0.19 |

| Sequence | self-splicing fitness (ln) (30 °C) | self-splicing fitness (ln) (37 °C) |
| --- | --- | --- |
| CGCGAGCAAUAUUACGUCAA | -2.88 ± 0.31 | – |
| CGCGAGCAAUAUUACGUCUC | -3.71 ± 0.35 | -2.28 ± 0.33 |
| CGCGAGCAAUAUUACGUGAC | – | -2.54 ± 0.3 |
| CGCGAGCAAUAUUACGUGCG | – | -3.3 ± 0.47 |
| CGCUAGCAAUAUUACGAGGU | -3.83 ± 0.31 | -2.58 ± 0.23 |
| CGCUAGCAAUAUUACGAUAU | -3.98 ± 0.36 | -2.63 ± 0.25 |
| CGCUAGCAAUAUUACGAUGC | -4.31 ± 0.46 | -2.58 ± 0.36 |
| CGCUAGCAAUAUUACGCGGC | -3.25 ± 0.35 | -3.1 ± 0.29 |
| CGCUAGCAAUAUUACGCUGG | -2.63 ± 0.28 | -1.85 ± 0.36 |
| CGCUAGCAAUAUUACGCUUG | -3.3 ± 0.27 | -3 ± 0.4 |
| CGCUAGCAAUAUUACGGAAU | -3.52 ± 0.28 | -2.02 ± 0.26 |
| CGCUAGCAAUAUUACGGAUA | -2.99 ± 0.17 | -2.14 ± 0.22 |
| CGCUAGCAAUAUUACGGAUG | -1.13 ± 0.075 | -0.108 ± 0.096 |
| CGCUAGCAAUAUUACGGCCU | -0.677 ± 0.073 | -0.609 ± 0.1 |
| CGCUAGCAAUAUUACGGGCC | -2.29 ± 0.17 | -1.92 ± 0.19 |
| CGCUAGCAAUAUUACGGUGA | -2.28 ± 0.14 | -0.996 ± 0.11 |
| CGCUAGCAAUAUUACGUACU | -2.86 ± 0.15 | -0.0116 ± 0.18 |
| CGCUAGCAAUAUUACGUAGU | -3.48 ± 0.13 | -1.34 ± 0.12 |
| CGCUAGCAAUAUUACGUUGU | -3.3 ± 0.2 | -1.59 ± 0.18 |
| CGGAAGCAAUAUUACGAACA | -1.18 ± 0.12 | -0.826 ± 0.13 |
| CGGAAGCAAUAUUACGACAG | -0.256 ± 0.17 | 0.0808 ± 0.23 |
| CGGAAGCAAUAUUACGACCU | 0.28 ± 0.096 | 0.399 ± 0.11 |
| CGGAAGCAAUAUUACGACGG | -0.101 ± 0.13 | -0.695 ± 0.14 |
| CGGAAGCAAUAUUACGAGAG | -3.45 ± 0.49 | -1.65 ± 0.26 |
| CGGAAGCAAUAUUACGAGGA | -1.95 ± 0.2 | -1.4 ± 0.19 |

| Sequence | self-splicing fitness (ln) (30 °C) | self-splicing fitness (ln) (37 °C) |
| --- | --- | --- |
| CGGAAGCAAUAUUACGCACU | -2.24 ± 0.13 | -0.396 ± 0.11 |
| CGGAAGCAAUAUUACGCAUG | -1.53 ± 0.13 | -0.32 ± 0.11 |
| CGGAAGCAAUAUUACGCCCC | -1.49 ± 0.39 | – |
| CGGAAGCAAUAUUACGCUUC | -3.81 ± 0.35 | – |
| CGGAAGCAAUAUUACGGAGU | -4.49 ± 0.39 | -2.12 ± 0.2 |
| CGGAAGCAAUAUUACGGCAA | -2.89 ± 0.22 | -1.41 ± 0.18 |
| CGGAAGCAAUAUUACGGCUU | -3.34 ± 0.3 | -2.75 ± 0.36 |
| CGGAAGCAAUAUUACGGUUG | -0.585 ± 0.059 | -0.061 ± 0.085 |
| CGGAAGCAAUAUUACGUAGC | -2.64 ± 0.38 | -3.47 ± 0.46 |
| CGGAAGCAAUAUUACGUCAU | -3.78 ± 0.16 | -3.33 ± 0.2 |
| CGGAAGCAAUAUUACGUUUU | -3.64 ± 0.23 | -2.95 ± 0.18 |
| CGGCAGCAAUAUUACGAAUC | -4.16 ± 0.39 | -2.23 ± 0.34 |
| CGGCAGCAAUAUUACGAAUU | -3 ± 0.23 | -2.6 ± 0.33 |
| CGGCAGCAAUAUUACGACGC | -3.45 ± 0.28 | -0.355 ± 0.21 |
| CGGCAGCAAUAUUACGAGCA | -2.99 ± 0.24 | -0.81 ± 0.13 |
| CGGCAGCAAUAUUACGAUAU | -4.27 ± 0.23 | -1.51 ± 0.098 |
| CGGCAGCAAUAUUACGCAAG | -1.93 ± 0.13 | -1.01 ± 0.16 |
| CGGCAGCAAUAUUACGCAUA | -2.08 ± 0.21 | -1.03 ± 0.13 |
| CGGCAGCAAUAUUACGCGGG | -2.12 ± 0.12 | -1.42 ± 0.13 |
| CGGCAGCAAUAUUACGCUCU | -2.11 ± 0.14 | -0.612 ± 0.16 |
| CGGCAGCAAUAUUACGGCAU | -0.976 ± 0.088 | -0.0577 ± 0.1 |
| CGGCAGCAAUAUUACGGGGG | -3 ± 0.13 | -1.86 ± 0.16 |
| CGGCAGCAAUAUUACGGGUU | -4.26 ± 0.28 | -2.87 ± 0.33 |
| CGGCAGCAAUAUUACGGUAC | -3.61 ± 0.49 | -2.9 ± 0.23 |
| CGGCAGCAAUAUUACGUACA | -1.26 ± 0.11 | -0.624 ± 0.14 |

| Sequence | self-splicing fitness (ln) (30 °C) | self-splicing fitness (ln) (37 °C) |
| --- | --- | --- |
| CGGCAGCAAUAUUACGUCCG | -2.03 ± 0.12 | -2.92 ± 0.24 |
| CGGCAGCAAUAUUACGUCUA | -0.607 ± 0.071 | 0.443 ± 0.084 |
| CGGCAGCAAUAUUACGUCUU | -1.09 ± 0.066 | 0.328 ± 0.086 |
| CGGCAGCAAUAUUACGUGUA | -3.77 ± 0.25 | -2.21 ± 0.14 |
| CGGCAGCAAUAUUACGUUCA | -0.358 ± 0.068 | 0.0795 ± 0.082 |
| CGGCAGCAAUAUUACGUUUA | -2.06 ± 0.12 | -1.53 ± 0.13 |
| CGGCAGCAAUAUUACGUUUC | -3.29 ± 0.17 | -2.36 ± 0.19 |
| CGGGAGCAAUAUUACGAACU | – | -1.25 ± 0.45 |
| CGGGAGCAAUAUUACGAAGG | -1.9 ± 0.39 | -1.74 ± 0.41 |
| CGGGAGCAAUAUUACGACUU | -1.58 ± 0.37 | -1.83 ± 0.49 |
| CGGGAGCAAUAUUACGAGUG | -3.61 ± 0.24 | -1.61 ± 0.2 |
| CGGGAGCAAUAUUACGAUAA | -3.16 ± 0.25 | -2.57 ± 0.39 |
| CGGGAGCAAUAUUACGCAGA | -3.67 ± 0.48 | -2.01 ± 0.29 |
| CGGGAGCAAUAUUACGCCCA | -2.28 ± 0.25 | -1.24 ± 0.28 |
| CGGGAGCAAUAUUACGCGAA | -2.47 ± 0.25 | -1.9 ± 0.23 |
| CGGGAGCAAUAUUACGCUCA | -4.3 ± 0.46 | -0.0948 ± 0.37 |
| CGGGAGCAAUAUUACGCUUA | -2.19 ± 0.21 | -2.87 ± 0.43 |
| CGGGAGCAAUAUUACGGACG | -2 ± 0.14 | -2.14 ± 0.23 |
| CGGGAGCAAUAUUACGGCUC | -3 ± 0.3 | -2.12 ± 0.42 |
| CGGGAGCAAUAUUACGGUCG | -2.77 ± 0.24 | -2.43 ± 0.27 |
| CGGGAGCAAUAUUACGGUCU | -2.67 ± 0.29 | -0.781 ± 0.45 |
| CGGGAGCAAUAUUACGGUGU | -3.71 ± 0.24 | -2.48 ± 0.25 |
| CGGGAGCAAUAUUACGUCAG | -3.08 ± 0.19 | -2.34 ± 0.24 |
| CGGGAGCAAUAUUACGUCCU | -2.54 ± 0.25 | – |

Source: the supplement of paper PMC7877785
